This experiment deals with glutathione-S-transferase (GST)-tagged recombinant RARa ligand binding domain (LBD) (UniProt P10276). In words: cell-free TR-FRET coactivator recruitment assay; the concentration varied is that of the retinoid Rald, not of either protein. In general terms: Time-resolved FRET reads energy transfer from a long-lived donor to a nearby acceptor.

EC50 of retinaldehyde (Rald, small-molecule ligand) for recruitment of PGC-1a to RARa data for one substance are collected here from US20140378530A1.

Sequence of glutathione-S-transferase (GST)-tagged recombinant RARa ligand binding domain (LBD) (P10276 183-417 limits assumed): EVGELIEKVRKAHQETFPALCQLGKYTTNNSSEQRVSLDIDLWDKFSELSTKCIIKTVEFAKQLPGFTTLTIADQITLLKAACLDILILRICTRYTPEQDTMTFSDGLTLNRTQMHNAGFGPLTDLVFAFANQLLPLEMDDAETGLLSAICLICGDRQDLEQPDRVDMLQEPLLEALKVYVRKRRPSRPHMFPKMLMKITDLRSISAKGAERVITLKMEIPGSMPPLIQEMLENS

For “fluorescein-labeled coactivator peptide (PGC-1a)”, the EC50 of retinaldehyde (Rald, small-molecule ligand) for recruitment of PGC-1a to RARa was determined as 82 nM.
